Measurements as given in patent US20240383964A1, “De Novo Designed alpha(5) beta(1) Integrin selective minibinders” (UNIVERSITY OF WASHINGTON, priority 2023, published 2024).

Biological target: integrin α5β1 (Homo sapiens, UniProt P05556+P08648)
Test: Biolayer interferometry (BLI) binding to integrin α5β1
Conditions: pH 5 supplemented with 1 mM MgCl2, 1 mM CaCl2
Description: The polypeptides of the disclosure selectively bind to α5β1 integrin with antagonistic activity. The term “antagonistic activity” is used herein to describe the activity of a polypeptide that, upon binding to α5β1 integrin, inactivates the integrin complex or inhibits processes normally initiated by the integrin. In some embodiments, the polypeptide or fusion protein of any embodiment or combination of embodiments herein, binds integrin α5β1 with an affinity of between about 0.025 nm and about 50 μm, or between about 0.05 nm and about 8 μm, or between about 0.05 nm and about 8 μm, or between about 0.05 nm and about 2.5 μm, or between about 0.05 nm and about 700 nm, or between about 0.05 nm and about 0.5 nm. The binding affinity can be measured, for example, using biolayer interferometry (BLI) or yeast display. […] In one such assay to measure the binding affinity to a51integrin, the polypeptides are cloned with an N-terminus avi-tag and biotinylated chemically. Prior to measurements, streptavidin-coated biosensors are first hydrated in assay buffer for 10 minutes. […]
15 constructs of identified initial hits were expressed and purified—their binding affinities range from nanomolar to micromolar (data not shown). […] The binding affinity of each variant was calculated as described in Cao et al, 2022. […]

Sequence of integrin α5β1 (P08648 42-894 limits assumed): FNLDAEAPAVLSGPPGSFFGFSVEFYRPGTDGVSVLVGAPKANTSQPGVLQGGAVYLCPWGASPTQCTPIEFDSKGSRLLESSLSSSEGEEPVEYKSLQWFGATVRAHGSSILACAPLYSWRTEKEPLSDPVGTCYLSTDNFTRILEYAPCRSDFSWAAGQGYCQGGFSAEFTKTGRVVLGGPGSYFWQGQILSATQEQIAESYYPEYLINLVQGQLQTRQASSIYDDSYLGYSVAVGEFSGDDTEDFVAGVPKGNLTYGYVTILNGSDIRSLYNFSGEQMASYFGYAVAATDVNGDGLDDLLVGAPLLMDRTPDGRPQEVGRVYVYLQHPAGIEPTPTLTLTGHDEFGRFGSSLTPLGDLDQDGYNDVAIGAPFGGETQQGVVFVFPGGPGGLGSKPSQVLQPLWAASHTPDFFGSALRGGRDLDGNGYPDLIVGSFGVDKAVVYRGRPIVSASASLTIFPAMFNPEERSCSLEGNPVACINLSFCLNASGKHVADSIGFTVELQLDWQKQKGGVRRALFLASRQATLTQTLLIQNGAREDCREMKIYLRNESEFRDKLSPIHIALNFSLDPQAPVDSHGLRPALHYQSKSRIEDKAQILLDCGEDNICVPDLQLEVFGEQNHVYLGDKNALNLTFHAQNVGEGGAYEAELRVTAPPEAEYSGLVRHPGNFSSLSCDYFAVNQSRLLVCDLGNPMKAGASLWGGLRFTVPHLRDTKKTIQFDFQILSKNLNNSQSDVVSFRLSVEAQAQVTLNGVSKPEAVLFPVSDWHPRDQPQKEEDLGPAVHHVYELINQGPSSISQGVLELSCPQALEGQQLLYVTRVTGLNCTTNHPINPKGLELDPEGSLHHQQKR
Sequence of integrin α5β1 (P08648 895-995 partner limits assumed): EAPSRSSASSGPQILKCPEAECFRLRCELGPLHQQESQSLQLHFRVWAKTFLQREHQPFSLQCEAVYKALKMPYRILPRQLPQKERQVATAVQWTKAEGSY
Sequence of integrin α5β1 (P05556 21-728 limits assumed): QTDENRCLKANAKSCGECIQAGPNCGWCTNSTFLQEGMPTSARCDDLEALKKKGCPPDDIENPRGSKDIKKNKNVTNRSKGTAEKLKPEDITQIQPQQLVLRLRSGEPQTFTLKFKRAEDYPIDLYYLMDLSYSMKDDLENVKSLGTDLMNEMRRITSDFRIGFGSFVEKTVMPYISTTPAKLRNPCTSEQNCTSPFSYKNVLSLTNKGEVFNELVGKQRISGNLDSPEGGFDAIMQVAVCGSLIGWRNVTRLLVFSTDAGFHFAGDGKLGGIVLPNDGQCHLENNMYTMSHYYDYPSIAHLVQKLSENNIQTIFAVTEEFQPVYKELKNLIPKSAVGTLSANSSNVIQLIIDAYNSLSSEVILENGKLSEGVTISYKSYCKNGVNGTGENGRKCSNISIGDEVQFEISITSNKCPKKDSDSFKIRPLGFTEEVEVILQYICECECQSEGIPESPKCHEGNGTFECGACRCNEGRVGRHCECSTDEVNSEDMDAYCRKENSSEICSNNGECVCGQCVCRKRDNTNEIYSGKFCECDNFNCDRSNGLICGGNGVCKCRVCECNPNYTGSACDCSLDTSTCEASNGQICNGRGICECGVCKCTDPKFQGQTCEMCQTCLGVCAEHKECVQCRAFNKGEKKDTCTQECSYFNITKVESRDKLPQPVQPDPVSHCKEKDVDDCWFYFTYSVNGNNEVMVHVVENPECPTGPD

B1: 00179_v4.1: highest affinity α5β1 minibinder, sequence SELIIHGRGDFPSSELERLRERFERLGIKVRVDHKVLTLIGISEEEAERLARELRKRGIWVEIRK (protein)
chain: SELIIHGRGDFPSSELERLRERFERLGIKVRVDHKVLTLIGISEEEAERLARELRKRGIWVEIRK
- binding to α5β1 at pH 5: still can bind
